The target in assay [1] is T1, NPR-C on ATDC5 cells (mouse chondrogenic cell line) (mouse, UniProt P70180 41-536).
T1 construct: whole, on cells; also called ATDC5 cells surface
T1 sequence (looked up): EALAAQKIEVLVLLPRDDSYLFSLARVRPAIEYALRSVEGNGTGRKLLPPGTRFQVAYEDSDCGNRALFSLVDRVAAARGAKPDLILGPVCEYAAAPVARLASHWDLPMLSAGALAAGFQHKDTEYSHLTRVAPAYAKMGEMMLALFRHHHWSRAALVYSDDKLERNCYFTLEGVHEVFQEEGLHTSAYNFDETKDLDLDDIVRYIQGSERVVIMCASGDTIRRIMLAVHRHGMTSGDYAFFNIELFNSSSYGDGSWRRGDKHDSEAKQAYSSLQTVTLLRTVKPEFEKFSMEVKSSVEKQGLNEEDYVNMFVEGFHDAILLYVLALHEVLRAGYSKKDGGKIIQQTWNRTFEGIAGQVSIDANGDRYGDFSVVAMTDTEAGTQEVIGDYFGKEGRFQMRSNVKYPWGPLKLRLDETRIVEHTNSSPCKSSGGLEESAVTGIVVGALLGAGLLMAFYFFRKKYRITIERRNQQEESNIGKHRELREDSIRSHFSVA
The experiment in a line: displacement of 125I-Ostn[83-133] from ATDC5 cells. The protocol: (SEQ ID NO: 41) for 90 min at 4° C. After incubation, cells were washed twice with ice-cold PBS and solubilized with 0.5-ml of 0.5 M NaOH.
The radioactivity was measured with gamma-counter (Wallac). […] (SEQ ID NO: 41) and the IC₅₀ calculated was 4.7 nM. […] (SEQ ID NO: 41) (FIG. 12b).
(In a radioligand displacement assay an active substance lowers the binding of a labelled ligand.)

In assay [2] the target is T2, human GC-B, overexpressed on HEK293 cells (human, UniProt P20594 23-1047).
T2 construct: whole, on cells
T2 sequence (looked up): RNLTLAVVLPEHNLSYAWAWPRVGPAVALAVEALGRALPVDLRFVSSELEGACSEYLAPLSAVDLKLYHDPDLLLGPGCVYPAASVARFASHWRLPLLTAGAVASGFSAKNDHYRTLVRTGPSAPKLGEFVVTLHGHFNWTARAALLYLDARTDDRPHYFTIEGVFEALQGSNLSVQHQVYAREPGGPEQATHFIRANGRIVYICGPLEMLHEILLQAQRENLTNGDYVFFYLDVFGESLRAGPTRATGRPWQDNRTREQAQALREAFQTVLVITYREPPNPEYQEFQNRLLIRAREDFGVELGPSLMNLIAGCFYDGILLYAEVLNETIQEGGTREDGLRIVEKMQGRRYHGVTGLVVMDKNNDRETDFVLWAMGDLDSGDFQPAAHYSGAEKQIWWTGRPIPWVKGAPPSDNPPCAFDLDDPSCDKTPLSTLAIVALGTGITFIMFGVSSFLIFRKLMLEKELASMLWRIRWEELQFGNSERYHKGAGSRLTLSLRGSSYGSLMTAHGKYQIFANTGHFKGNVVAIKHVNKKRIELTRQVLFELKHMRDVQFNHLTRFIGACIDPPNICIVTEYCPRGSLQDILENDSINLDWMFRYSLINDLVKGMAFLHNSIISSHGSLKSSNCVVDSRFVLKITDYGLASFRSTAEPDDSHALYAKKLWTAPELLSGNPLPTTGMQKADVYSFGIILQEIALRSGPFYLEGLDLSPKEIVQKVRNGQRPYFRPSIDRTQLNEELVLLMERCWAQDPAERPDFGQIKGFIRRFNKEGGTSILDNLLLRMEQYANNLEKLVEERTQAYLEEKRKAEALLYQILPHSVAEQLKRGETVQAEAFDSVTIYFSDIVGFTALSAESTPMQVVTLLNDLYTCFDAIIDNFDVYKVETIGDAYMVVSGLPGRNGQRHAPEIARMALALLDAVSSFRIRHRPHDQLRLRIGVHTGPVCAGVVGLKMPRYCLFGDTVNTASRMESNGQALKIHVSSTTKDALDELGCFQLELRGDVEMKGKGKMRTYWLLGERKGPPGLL
The assay is described as follows: PLAP activity bound to transiently transfected HEK293 cells. From the text: (§1) To analyze the potential binding of Ostn to natriuretic receptors, a fusion protein (PLAP-Ostn) (FIG. 6) was generated as described above. This fusion protein comprised an N-terminal secreted placental alkaline phosphatase (PLAP) moiety linked to mature mouse Ostn (residues 29-130) (SEQ ID NO: 62). Conditioned media containing PLAP-mOstn was used to assess Ostn binding on transiently transfected cells.

Assay [3] deals with T3, rat GC-A, overexpressed on HEK293 cells (rat, UniProt P18910 29-1057).
T3 construct: whole, on cells
T3 sequence (looked up): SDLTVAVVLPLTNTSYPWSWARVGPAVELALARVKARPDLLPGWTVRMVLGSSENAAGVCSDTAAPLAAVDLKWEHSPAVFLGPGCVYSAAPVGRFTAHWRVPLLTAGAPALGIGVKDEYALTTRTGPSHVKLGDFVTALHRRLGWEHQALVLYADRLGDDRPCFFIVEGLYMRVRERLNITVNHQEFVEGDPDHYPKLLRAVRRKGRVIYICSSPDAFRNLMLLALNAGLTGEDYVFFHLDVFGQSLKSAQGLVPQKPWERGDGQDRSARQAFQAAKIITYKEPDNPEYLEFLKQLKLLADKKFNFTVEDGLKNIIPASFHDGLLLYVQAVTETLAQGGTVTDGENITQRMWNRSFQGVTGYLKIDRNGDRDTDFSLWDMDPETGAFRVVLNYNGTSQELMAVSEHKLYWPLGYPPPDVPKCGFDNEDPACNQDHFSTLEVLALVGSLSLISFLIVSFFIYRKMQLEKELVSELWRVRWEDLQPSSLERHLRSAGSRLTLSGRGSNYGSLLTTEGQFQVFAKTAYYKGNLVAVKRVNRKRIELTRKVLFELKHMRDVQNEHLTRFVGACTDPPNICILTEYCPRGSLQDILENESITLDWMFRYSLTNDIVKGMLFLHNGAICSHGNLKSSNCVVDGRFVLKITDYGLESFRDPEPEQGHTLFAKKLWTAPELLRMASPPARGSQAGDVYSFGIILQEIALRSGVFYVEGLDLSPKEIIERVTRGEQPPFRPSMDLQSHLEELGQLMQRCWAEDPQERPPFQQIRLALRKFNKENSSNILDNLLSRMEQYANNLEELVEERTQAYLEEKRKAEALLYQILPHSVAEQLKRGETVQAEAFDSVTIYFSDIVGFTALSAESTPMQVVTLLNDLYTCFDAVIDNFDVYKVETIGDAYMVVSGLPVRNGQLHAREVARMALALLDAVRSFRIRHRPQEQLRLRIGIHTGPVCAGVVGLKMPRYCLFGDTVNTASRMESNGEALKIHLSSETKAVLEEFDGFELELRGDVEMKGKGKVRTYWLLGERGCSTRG
Described as above.
From the text: as §1

Assay [4] has as its target T4, human NPR-C (natriuretic peptide receptor C, clearance receptor), overexpressed on HEK293 cells (human, UniProt P17342 27-541).
T4 construct: whole, on cells; also called natriuretic clearance receptor
T4 sequence (looked up): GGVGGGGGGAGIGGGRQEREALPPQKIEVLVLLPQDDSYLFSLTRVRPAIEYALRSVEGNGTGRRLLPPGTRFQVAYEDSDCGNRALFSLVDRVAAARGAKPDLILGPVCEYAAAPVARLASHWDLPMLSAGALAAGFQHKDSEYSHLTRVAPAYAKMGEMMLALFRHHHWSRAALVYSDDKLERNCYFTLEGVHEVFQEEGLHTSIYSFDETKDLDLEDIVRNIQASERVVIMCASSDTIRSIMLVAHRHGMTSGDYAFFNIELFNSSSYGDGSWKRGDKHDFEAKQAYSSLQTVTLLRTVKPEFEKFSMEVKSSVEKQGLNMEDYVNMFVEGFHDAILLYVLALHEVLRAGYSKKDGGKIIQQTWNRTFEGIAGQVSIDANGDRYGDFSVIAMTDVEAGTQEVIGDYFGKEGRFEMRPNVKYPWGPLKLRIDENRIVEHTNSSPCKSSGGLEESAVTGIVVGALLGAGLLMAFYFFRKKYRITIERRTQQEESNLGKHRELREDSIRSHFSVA
The assay is described as follows: PLAP activity bound to NPR-C-transfected HEK293 cells, saturation binding.
From the text: as §1

Assay [5] has as its target T5, endogenous GC-A of HEK293 cells (human, UniProt P16066 33-1061).
T5 sequence (looked up): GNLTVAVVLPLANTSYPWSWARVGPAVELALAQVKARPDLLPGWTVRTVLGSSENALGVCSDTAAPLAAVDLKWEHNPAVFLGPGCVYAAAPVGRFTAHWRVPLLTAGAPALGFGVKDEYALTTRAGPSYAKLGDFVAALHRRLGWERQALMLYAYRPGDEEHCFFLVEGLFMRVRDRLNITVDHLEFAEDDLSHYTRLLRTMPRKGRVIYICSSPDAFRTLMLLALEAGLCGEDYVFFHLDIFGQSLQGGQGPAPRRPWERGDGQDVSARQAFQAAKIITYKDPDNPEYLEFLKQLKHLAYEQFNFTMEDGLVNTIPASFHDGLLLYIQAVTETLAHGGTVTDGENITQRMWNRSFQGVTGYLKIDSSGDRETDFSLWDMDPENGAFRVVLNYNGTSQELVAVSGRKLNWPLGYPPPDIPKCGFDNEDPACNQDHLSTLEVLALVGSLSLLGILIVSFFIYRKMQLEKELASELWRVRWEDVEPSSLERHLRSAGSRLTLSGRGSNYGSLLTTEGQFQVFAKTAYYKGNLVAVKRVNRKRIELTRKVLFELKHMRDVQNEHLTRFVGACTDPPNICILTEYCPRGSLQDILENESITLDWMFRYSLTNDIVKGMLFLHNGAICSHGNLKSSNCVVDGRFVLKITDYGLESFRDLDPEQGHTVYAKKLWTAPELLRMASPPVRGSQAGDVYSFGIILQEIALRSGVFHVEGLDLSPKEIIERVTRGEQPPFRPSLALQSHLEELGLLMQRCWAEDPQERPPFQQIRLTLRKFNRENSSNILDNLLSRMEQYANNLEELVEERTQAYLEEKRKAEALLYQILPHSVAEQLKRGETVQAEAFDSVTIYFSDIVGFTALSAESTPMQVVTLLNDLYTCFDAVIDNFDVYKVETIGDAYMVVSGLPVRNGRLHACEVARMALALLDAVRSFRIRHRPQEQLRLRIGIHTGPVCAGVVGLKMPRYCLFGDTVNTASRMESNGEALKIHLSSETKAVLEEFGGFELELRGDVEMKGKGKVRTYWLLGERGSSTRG
The experiment in a line: cell-based or functional assay.

The target in assay [6] is T4, human NPR-C (natriuretic peptide …). The assay is described as follows: cell-based or functional assay.
Assay [7] shares this target. The assay is described as follows: competition of ~30 nM PLAP-Ostn binding on NPR-C-transfected HEK293 cells. The procedure:
To further validate the specificity and affinity of Ostn-NPR-C binding, competition experiments were conducted in NPR-C over-expressing cells. […] (SEQ ID NO: 71) lacking a part of NM2. […] (SEQ ID NO: 66) or Ostn[117-130] (SEQ ID NO: 71). […] (SEQ ID NO: 66) was able to compete off 50% of the binding of PLAP-mOstn in the ˜1-10 nM range, in contrast to Ostn[117-130] (SEQ ID NO: 71) that was unable to efficiently compete up to 100 nM (FIG. 7B).

The results in this text go back to US20070049521A1 (ENOBIA PHARMA, published 2007).

No end group written: not given here.

B1: human Ostn[83-133] (cold) (peptide)
peptide: SFSGFGSPLDRLSAGSVDHKGKQRKVVDHPKRRFGIPMDRIGRNRLSNSRG
notes: Bought from Phoenix Pharmaceutical co
One may read the IC50 as the concentration that gives 50% inhibition. Regarding B1, the 50% inhibitory concentration (IC50) in assay [1] turned out to be 4.7 nM.

B2: PLAP-Ostn fusion protein (N-terminal secreted placental alkaline phosphatase moiety linked to mouse Ostn[29-130]) (other)
chain: DAAQPARRARRTYEAYVRSSGIIPVEEENPDFWNREAAEALGAAKKLQPAQTAAKNLIIFLGDGMGVSTVTAARILKGQKKDKLGPEIPLAMDRFPYVALSKTYNVDKHVPDSGATATAYLCGVKGNFQTIGLSAAARFNQCNTTRGNEVISVMNRAKKAGKSVGVVTTTRVQHASPAGTYAHTVNRNWYSDADVPASARQEGCQDIATQLISNMDIDVILGGGRKYMFPMGTPDPEYPDDYSQGGTRLDGKNLVQEWLAKRQGARYVWNRTELMQASLDPSVTHLMGLFEPGDMKYEIHRDSTLDPSLMEMTEAALRLLSRNPRGFFLFVEGGRIDHGHHESRAYRALTETIMFDDAIERAGQLTSEEDTLSLVTADHSHVFSFGGYPLRGSSIFGLAPGKARDRKAYTVLLYGNGPGYVLKDGARPDVTESESGSPEYRQQSAVPLDEETHAGEDVAVFARGPQAHLVHGVQEQTFIAHVMAFAACLEPYTACDLAPPAGTTDAAHPGYLDLASQEFGTASLQSPPTAREEKSATELSAKLLRLDDLVSLENDVFETKKKRSFSGFGSPLDRLSAGSVEHRGKQRKAVDHSKKRFGIPMDRIGRNRLSSSRG
notes: Used as conditioned medium of transfected HEK293 cells; also called PLAP-mOstn
A word on the EC50: it is the midpoint of the concentration-response curve. Take B2: the binding result in assay [2] and in assay [3] was “no binding” in each case. The EC50 in assay [4] was around 30 nM.

Regarding SLRRSSCFGGRIDRIGAQSGLGCNSFRY (ligand, ends and bridges not checked; cysteine pairing not given here) [Rat ANP (1-28)], in assay [5], the “increase in cGMP levels upon ANP stimulation of GFP-transfected HEK293 cells” value was determined as 9 fold. The “increase in cGMP levels upon stimulation of NPR-C-overexpressing HEK293 cells with 0.1 nM ANP[1-28]” value in assay [6] amounted to 1.5 fold.

As to YDHSKKRFGIPMDRIGRNRLSNSR-NH2 [mouse amidated Ostn[107-129] synthetic C-terminal peptide], in assay [6], the “cGMP levels of NPR-C-expressing HEK293 cells with 0.1 nM ANP and 10 nM Ostn[107-129]” value is 4 fold. The IC50 in assay [7] fell in the range of 1 to 10 nM.
